Laboratory results as given in paper PMC11390915, “Histones and histone variant families in prokaryotes” (Nature Communications, 2024).

Molecular target: the molecule itself
Test: crystal structure; HTkC at 4.0 mg/mL in 50 mM Tris-HCl pH 7.0, 100 mM KCl, 10% glycerol; sitting drop vapor diffusion, reservoir 0.01 M trisodium citrate, 33% (w/v) PEG 6000; space group P2(1)2(1)2(1), 1.84 Å; four monomers in the asymmetric unit

B1: face-to-face (FtF) histone from Thermococcus kodakarensis (HTkC) (natural protein)
chain: MAEMLVKSKVKEFVKSVDPEMRVSPEFYDALEAEVKALVEKAIKRAQAEGRKTLYARHV
notes: Face-to-face (FtF) histone HTkC of Thermococcus kodakarensis, product of gene TK1040; synthesized gene cloned into pET30b (plasmid pRD503); The purification used heat, heparin and SEC only, so the protein is probably untagged (surmised); Oligonucleotides for cloning are in the Supplementary Information; also called FtF histone HTkC; TK1040; source: E. coli BL21(DE3)pLysS, purified (heating at 70 …)
stoichiometry N: 4
